This note sets out measurements from patent CN114426574A (WUHAN VIRUS INST OF CHINESE ACADEMY OF SCIENCES, dated 2022).

The assay concerns the target WH-RBD-TFc (SARS-CoV-2 spike glycoprotein receptor binding domain, thrombin site, human IgG1 Fc fusion) (SARS-CoV-2; human, UniProt P0DTC2 319-541).

B1: Fab F1-B5 (Fab, V domains shown)
VH: EVQLVQSGGGVVQPGRSLRLSCAASGFTVSSNYMSWVRQAPGKGLEWVSVIYSGGSTYYADSVKGRFTISRDNSKNTLYLQMNSLRAEDTAVYYCARGDGSDDYYYGMDVWGQGTTVTVSS
VL: QAVLTQPSSVSGAPGQRVTISCTGSSSNVGAGYDVHWYQQLPGTAPKLLIYGNSNRPSGVPDRFSGSKSGTSASLAITGLQAEDEADYYCQSYDSSLSGSVFGGGTKLTVLG
As for B1, the EC50 (in general, the midpoint of the concentration-response curve) turned out to be 63 nM. This counts as double-digit nanomolar.

B2: Fab F1-B3 (Fab, V domains shown)
VH: QVQLQESGGGLVQPGGSLRLSCAASGFTVSSNYMSWVRQAPGEGLEWVSSISSSSSYIYYADSVKGRFTISRDNAKNSLYLQMNSLRAEDTAVYYCARGKWLRGAFDIWGQGTTVTVSS
VL: NFMLTQPHSMSESPGKTVTISCTGSSGSIANNYVQWYRQRPGSAPITVIYEDNQRPSGVPDRFSGSIDSSSNSASLTISGLKTEDEADYYCQSYDSSTHWVFGGGTKLTVLG
Take B2: the response was half-maximal at 12 nM (EC50). Compared with the last molecule, the EC50 is about 5.2-fold lower.
